Test results as given in US6077680A (The University of Florida, dated 2000).
Values joined by “and” are separate entries in the source; they are usually repeats but may differ in a detail not shown here. Identical values can stand only once. Like-named read-outs stand apart in the source and are kept apart here. Bridges are numbered along the chain shown (N, C = ends). Where no end group is shown, it is not given here.

Columns and labels:
[1] = system: rat brain membrane K channels (primarily Kv1.2); type: binding
[2] = target: Kv1.3 potassium channels in Jurkat T lymphocytes (Homo sapiens, UniProt P22001); type: cell-based
Sequence of Kv1.3 potassium channels in Jurkat T lymphocytes (P22001 whole entry): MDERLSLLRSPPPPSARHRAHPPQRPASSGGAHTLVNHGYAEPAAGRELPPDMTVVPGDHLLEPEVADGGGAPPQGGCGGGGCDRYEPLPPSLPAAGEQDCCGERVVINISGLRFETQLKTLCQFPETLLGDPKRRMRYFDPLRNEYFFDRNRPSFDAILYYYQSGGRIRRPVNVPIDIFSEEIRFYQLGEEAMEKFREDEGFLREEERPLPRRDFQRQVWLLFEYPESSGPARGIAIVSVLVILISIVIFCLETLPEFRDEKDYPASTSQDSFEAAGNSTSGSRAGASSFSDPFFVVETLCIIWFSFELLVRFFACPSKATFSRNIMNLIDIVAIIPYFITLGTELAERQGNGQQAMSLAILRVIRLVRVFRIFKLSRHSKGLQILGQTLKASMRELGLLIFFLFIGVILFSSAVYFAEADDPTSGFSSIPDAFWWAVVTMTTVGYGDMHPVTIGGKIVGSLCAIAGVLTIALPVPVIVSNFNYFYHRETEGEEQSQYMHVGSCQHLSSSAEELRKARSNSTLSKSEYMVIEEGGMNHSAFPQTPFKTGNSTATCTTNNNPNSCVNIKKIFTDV

Kv1.3(D386→K) = type: cell-based
[3] = target: Kv1.3 channels in Jurkat T lymphocytes (Homo sapiens, UniProt P22001); type: binding
Sequence of Kv1.3 channels in Jurkat T lymphocytes (P22001 whole entry): as above

Kv1.3 [4] = target: T1, Kv1.3 (Mus musculus, UniProt P16390); assay: cell-based; type: cell-based
T1 sequence (P16390 whole entry): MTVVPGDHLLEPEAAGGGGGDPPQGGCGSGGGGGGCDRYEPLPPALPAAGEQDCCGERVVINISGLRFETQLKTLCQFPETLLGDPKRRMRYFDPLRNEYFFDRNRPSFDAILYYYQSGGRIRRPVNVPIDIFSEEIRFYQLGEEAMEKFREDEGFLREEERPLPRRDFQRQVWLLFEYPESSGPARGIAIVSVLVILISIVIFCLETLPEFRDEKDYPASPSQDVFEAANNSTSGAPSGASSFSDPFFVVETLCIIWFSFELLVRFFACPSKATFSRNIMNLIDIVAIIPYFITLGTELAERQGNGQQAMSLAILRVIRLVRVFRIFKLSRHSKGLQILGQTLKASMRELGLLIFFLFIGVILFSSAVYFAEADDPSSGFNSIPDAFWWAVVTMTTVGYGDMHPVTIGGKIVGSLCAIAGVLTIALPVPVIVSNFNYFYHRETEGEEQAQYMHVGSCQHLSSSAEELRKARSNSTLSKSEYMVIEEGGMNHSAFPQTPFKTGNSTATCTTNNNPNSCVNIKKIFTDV

Kv1.2 = Kv1.2 (Rattus norvegicus, UniProt P63142); type: cell-based
Sequence of Kv1.2 (P63142 whole entry): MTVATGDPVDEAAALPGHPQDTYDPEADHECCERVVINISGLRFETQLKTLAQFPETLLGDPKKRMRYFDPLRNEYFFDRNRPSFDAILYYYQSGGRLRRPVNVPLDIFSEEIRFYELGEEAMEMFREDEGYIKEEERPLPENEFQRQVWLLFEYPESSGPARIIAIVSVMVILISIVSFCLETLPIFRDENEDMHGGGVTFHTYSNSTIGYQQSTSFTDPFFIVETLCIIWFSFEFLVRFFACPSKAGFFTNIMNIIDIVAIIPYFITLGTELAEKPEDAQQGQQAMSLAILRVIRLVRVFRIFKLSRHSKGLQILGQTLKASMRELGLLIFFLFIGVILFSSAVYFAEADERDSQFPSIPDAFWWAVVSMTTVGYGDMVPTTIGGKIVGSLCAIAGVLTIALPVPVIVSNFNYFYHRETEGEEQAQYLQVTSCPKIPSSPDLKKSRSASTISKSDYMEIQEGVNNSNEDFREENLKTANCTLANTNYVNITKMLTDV

Kv1.3 [5] = target: T1, Kv1.3; type: cell-based
Kv1.5 = Kv1.5 (Homo sapiens, UniProt P22460); type: cell-based
Sequence of Kv1.5 (P22460 whole entry): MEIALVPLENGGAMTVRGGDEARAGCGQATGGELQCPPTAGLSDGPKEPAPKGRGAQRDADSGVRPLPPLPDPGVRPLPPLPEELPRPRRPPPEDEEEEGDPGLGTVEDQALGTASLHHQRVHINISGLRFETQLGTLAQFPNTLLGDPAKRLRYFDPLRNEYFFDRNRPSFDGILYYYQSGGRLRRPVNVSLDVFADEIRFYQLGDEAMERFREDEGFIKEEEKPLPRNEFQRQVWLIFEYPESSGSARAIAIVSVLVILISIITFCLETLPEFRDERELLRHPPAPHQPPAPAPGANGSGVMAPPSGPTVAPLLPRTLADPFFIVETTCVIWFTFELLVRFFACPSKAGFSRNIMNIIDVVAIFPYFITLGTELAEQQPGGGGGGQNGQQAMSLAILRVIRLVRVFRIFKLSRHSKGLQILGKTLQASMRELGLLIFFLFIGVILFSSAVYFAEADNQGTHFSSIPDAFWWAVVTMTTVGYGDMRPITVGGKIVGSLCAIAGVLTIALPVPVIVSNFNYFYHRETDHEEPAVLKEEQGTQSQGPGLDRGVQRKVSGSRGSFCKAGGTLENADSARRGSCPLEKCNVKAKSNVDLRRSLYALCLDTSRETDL

Kv3.1 = Kv3.1 (Mus musculus, UniProt P15388); type: cell-based
Sequence of Kv3.1 (P15388 whole entry): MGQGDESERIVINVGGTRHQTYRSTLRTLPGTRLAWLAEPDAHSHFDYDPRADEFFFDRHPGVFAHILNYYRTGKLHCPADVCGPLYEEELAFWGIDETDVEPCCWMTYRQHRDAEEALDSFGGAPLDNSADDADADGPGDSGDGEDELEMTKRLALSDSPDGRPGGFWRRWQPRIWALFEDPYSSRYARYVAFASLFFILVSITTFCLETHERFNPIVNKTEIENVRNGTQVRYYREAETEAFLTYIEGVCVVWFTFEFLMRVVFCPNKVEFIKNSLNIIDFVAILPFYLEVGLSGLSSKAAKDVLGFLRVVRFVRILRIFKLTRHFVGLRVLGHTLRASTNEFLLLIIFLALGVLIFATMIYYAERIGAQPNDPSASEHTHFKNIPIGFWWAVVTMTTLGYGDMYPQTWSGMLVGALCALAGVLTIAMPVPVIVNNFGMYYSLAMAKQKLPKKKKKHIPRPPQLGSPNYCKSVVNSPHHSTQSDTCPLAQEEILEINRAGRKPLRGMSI

IKCa (hKCa4) = IKCa (hKCa4) (Homo sapiens, UniProt O15554); type: cell-based
Sequence of IKCa (hKCa4) (O15554 whole entry): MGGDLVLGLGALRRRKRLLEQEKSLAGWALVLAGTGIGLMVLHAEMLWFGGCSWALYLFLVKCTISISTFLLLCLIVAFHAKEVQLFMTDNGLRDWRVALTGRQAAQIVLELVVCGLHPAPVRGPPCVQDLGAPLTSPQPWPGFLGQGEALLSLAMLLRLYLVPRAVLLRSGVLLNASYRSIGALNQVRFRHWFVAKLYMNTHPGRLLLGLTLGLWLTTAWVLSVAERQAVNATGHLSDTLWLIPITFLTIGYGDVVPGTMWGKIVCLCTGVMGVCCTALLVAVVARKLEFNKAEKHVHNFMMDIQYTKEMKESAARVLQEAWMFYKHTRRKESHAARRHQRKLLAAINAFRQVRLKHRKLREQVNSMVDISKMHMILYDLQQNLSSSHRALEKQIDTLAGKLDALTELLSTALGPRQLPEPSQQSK

[6] = system: Kv1.1, Kv1.2, Kv1.5, Kv3.1, hKCa4 relative to Kv1.3; type: cell-based
[7] = system: pepsin A, pancreatic elastase, subtilisin, trypsin-chymotrypsin, thermolysin
[8] = target: rat brain membrane K channels (delayed rectifier, primarily Kv1.2) (rat) (UniProt P63142)
[9] = target: rat brain membrane K channels (delayed rectifier, primarily Kv1.2) (rat) (UniProt P63142); remark: listed apart in the source
[10] = target: cloned Kv1.3 channel, wild type
[11] = target: cloned Kv1.3 channel, wild type; remark: listed apart in the source
cloned Kv1.2 channel [12] = target: cloned Kv1.2 channel
[13] = target: cloned Kv1.3 channel, wild type; remark: listed apart in the source
cloned Kv1.2 channel [14] = target: cloned Kv1.2 channel; remark: listed apart in the source
[15] = target: cloned Kv1.3 channel, wild type; remark: listed apart in the source
cloned Kv1.1 channel [16] = assay: block of cloned channel
[17] = target: cloned Kv1.3 channel, wild type; assay: block of cloned channel
[18] = target: cloned Kv1.3 channel, wild type; assay: patch clamp block of Kv1.3
cloned Kv1.5 channel [19] = assay: patch clamp block of cloned channel
cloned Kv3.1 channel [20] = assay: patch clamp block of cloned channel
[21] = target: cloned Kv1.3 channel, wild type; remark: listed apart in the source
[22] = target: IKCa channel of activated human T-cells (human) (UniProt O15554); assay: whole-cell patch clamp block, activated human T-cells; called Kd in paragraph 470
Kv1.3 D386K = assay: electrophysiological block of current; Kd from fraction of unblocked current
Kv1.3 D386N = assay: as above
Kv1.3 G380E = assay: as above
Kv1.3 H404L = assay: as above
Kv1.3 H404T = assay: as above
Kv1.3 H404Y = assay: as above
[23] = target: Kv1.3 channel printed as G30; assay: as above
[24] = target: rat brain membrane K channels (delayed rectifier, primarily Kv1.2) (rat) (UniProt P63142); assay: IC50 ratio on brain delayed rectifier K channels (table title); assay not given
[25] = target: rat brain membrane K channels (delayed rectifier, primarily Kv1.2) (rat) (UniProt P63142); remark: listed apart in the source
[26] = target: cloned Kv1.3 channel, wild type; remark: listed apart in the source
cloned Kv1.1 channel [27] = target: cloned Kv1.1 channel
cloned Kv1.1 channel [28] = target: cloned Kv1.1 channel; remark: listed apart in the source
cloned Kv1.1 channel [29] = target: cloned Kv1.1 channel; remark: listed apart in the source
[30] = target: cloned Kv1.3 channel, wild type; remark: listed apart in the source
cloned Kv1.2 channel [31] = assay: block of cloned channel
[32] = target: small conductance calcium-activated potassium channel in T-cells; assay: block of channel in T-cells
cloned Kv1.1 channel [33] = assay: whole-cell patch clamp block, cell line stably expressing the channel
cloned Kv1.2 channel [34] = assay: as above
[35] = target: cloned Kv1.3 channel, wild type; assay: as above
cloned Kv1.5 channel [36] = assay: as above
cloned Kv3.1 channel [37] = assay: as above
[38] = target: T2, rat brain membrane K channels (delayed rectifier, primarily Kv1.2) (rat, UniProt P63142)
[39] = target: T3, Kv1.3 potassium channel of human T lymphocytes (human, UniProt P22001); assay: 125I-ChTX displacement, Jurkat T lymphocytes
[40] = target: T3, Kv1.3 potassium channel of human T …; assay: 125I-ChTX displacement, Jurkat T lymphocytes; remark: listed apart in the source
[41] = target: T2, rat brain membrane K channels (delayed …); assay: 125I-DTX displacement, rat brain membranes
[42] = target: T2, rat brain membrane K channels (delayed …); assay: IC50 ratio on brain delayed rectifier K channels (table title); assay not given

In the case of CCCC[C@@H]1NC(=O)[C@H](CCSC)NC(=O)[C@H](CO)NC(=O)[C@H](Cc2c[nH]cn2)NC(=O)[C@H](CCCCN)NC(=O)[C@@H]2CSSC[C@@H]3NC(=O)[C@H]([C@@H](C)O)NC(=O)[C@H](CCCCN)NC(=O)[C@H](CCCNC(=N)N)NC(=O)[C@H](CSSC[C@H](NC(=O)[C@H](CCCNC(=N)N)NC(=O)[C@H](CO)NC(=O)[C@H](CCCCN)NC(=O)[C@@H]4CCCN4C(=O)[C@H]([C@@H](C)CC)NC(=O)[C@H]([C@@H](C)O)NC(=O)[C@H](CC(=O)O)NC(=O)[C@H]([C@@H](C)CC)NC(=O)[C@@H](NC(=O)[C@H](CO)NC(=O)[C@@H](N)CCCNC(=N)N)CSSC[C@@H](C(=O)O)NC(=O)[C@H]([C@@H](C)O)NC(=O)CNC3=O)C(=O)N[C@@H]([C@@H](C)O)C(=O)N[C@@H](C)C(=O)N[C@@H](Cc3ccccc3)C(=O)N[C@@H](CCC(N)=O)C(=O)N2)NC(=O)[C@H](Cc2ccccc2)NC(=O)[C@H](CO)NC(=O)[C@H](CC(C)C)NC(=O)[C@H](CCCNC(=N)N)NC(=O)[C@H](Cc2ccc(O)cc2)NC1=O [K22Nle], the “Equipotent Molar Ration (Analog IC50 /ShK IC50) Rat brain” value [1] is reported as over 250, the “IC50 Ratio” value [1] is reported as over 250 and the ΔF [1] is reported as over 3.23. For the same molecule, the “Equipotent Molar Ration (Analog IC50 /ShK IC50) Lymphocyte” value [2] was over 23, the “reduction of affinity (IC50) for Kv1.3 relative to ShK toxin” value [2] was “more than 23 fold” and the “ΔΔG (coupling energy), mutant cycle” value (Kv1.3(D386→K)) was 0.222 kJ/mol.

CC[C@H](C)[C@@H]1NC(=O)[C@@H](NC(=O)[C@H](CO)NC(=O)[C@@H](N)CCCNC(=N)N)CSSC[C@@H](C(=O)O)NC(=O)[C@H]([C@@H](C)O)NC(=O)CNC(=O)[C@@H]2CSSC[C@@H]3NC(=O)[C@H](CCC(N)=O)NC(=O)[C@H](Cc4ccccc4)NC(=O)[C@H](C)NC(=O)[C@H]([C@@H](C)O)NC(=O)[C@H](CSSC[C@H](NC(=O)[C@H](Cc4ccccc4)NC(=O)[C@H](CO)NC(=O)[C@H](CC(C)C)NC(=O)[C@H](CCCNC(=N)N)NC(=O)[C@H](Cc4ccc(O)cc4)NC(=O)[C@H](CCCCN)NC(=O)[C@H](CCSC)NC(=O)[C@H](CO)NC(=O)[C@H](Cc4cnc[nH]4)NC(=O)[C@H](CCCCN)NC3=O)C(=O)N[C@@H](CCCNC(=N)N)C(=O)N[C@@H](CCCCN)C(=O)N[C@@H]([C@@H](C)O)C(=O)N2)NC(=O)[C@H](CCCNC(=N)N)NC(=O)[C@H](CO)NC(=O)[C@H](CCCCN)NC(=O)[C@@H]2CCCN2C(=O)[C@H]([C@@H](C)CC)NC(=O)[C@H]([C@@H](C)O)NC(=O)[C@H](CC(=O)O)NC1=O [ShK] was tested, and the ΔF [1] was 0.0, the IC50 ([1]; read-out: IC50 Rat Brain 125I-CTX) was 8 nM and the “Hill coefficient, [125I]-ChTX binding” value [3] was 0.89±0.17. For the same molecule, the “washout from the receptor” value (Kv1.3 [4]) was “binds almost irreversibly”, the “Kv1.2 less sensitive than Kv1.3” value (Kv1.2) was 100 fold and the “Hill coefficient, Kv1.3 block” value (Kv1.3 [5]) was “close to unity”. For the same molecule, the “sensitivity of Kv1.5, in words” value (Kv1.5) was “resistant to the peptide”, the “sensitivity of Kv3.1, in words” value (Kv3.1) was “resistant to the peptide” and the “hKCa4 less sensitive than Kv1.3” value (IKCa (hKCa4)) was 100 fold. The “other closely related channels less sensitive than Kv1.3” value [6] was over 100 fold, the “resistance to proteolysis by porcine pepsin A, pancreatic elastase and subtilisin” value ([7]; […], 30° C., pH 3.0 (pepsin A), pH 6.5 (elastase, subtilisin)) was “completely resistant to proteolysis” and the “cleavage by trypsin-chymotrypsin mixture or thermolysin” value ([7]; pH 6.5) was “readily cleaved”.

In the case of “ShK toxin (synthetic, wild type) (peptide)”, the free energy difference of binding [8] is reported as 0 kJ/mol, the IC50 [9] is reported as 8 nM and the Kd [10] is reported as 0.6 nM and 0.3 nM. It also gave a Kd [11] of 0.7 nM, a Kd (cloned Kv1.2 channel [12]) of 9 nM and a Kd [13] of 0.012 nM. The block of Kv1.2 current, whole-cell patch clamp (cloned Kv1.2 channel [14]) was 100 fold, the block of Kv1.3 current, whole-cell patch clamp (IC50) [15] was 0.012 nM and the Kd (cloned Kv1.1 channel [16]) was 0.01 nM. For the same molecule, the Kd [17] was 0.01 nM, the Kd [18] was 0.011 nM and the Kd (cloned Kv1.5 channel [19]) was over 1000 nM. For the same molecule, the Kd (cloned Kv3.1 channel [20]) was over 1000 nM, the Kd [21] was 0.1 nM and the Kd [22] was 28 nM. For the same molecule, the Kd (Kv1.3 D386K) was 1.8 nM, the Kd (Kv1.3 D386N) was 0.4 nM and the Kd (Kv1.3 G380E) was 0.6 nM. For the same molecule, the Kd (Kv1.3 H404L) was 3.2 nM, the Kd (Kv1.3 H404T) was 0.3 nM and the Kd (Kv1.3 H404Y) was 4 nM. The Kd [23] was 0.6 nM and the free energy difference of binding [24] was 0 kJ/mol.

ShK-K22DAP (peptide) showed a free energy difference of binding [25] of 9.33 kJ/mol, a half-blocking dose for Kv1.3 [26] of 28 pM and a loss of potency against Kv1.1 (cloned Kv1.1 channel [27]) of over 100 fold. The potency on Kv1.1 against its potency on Kv1.3 (cloned Kv1.1 channel [28]) was 40 fold, the block of Kv1.1 current, whole-cell patch clamp (cloned Kv1.1 channel [29]) was 30 fold and the block of Kv1.3 current, whole-cell patch clamp (IC50) [30] was 0.03 nM. It also gave a Kd (cloned Kv1.2 channel [31]) of 5 nM, a Kd [32] of 10 nM and a Kd (cloned Kv1.1 channel [33]) of 3 nM. For the same molecule, the Kd (cloned Kv1.2 channel [34]) was 39 nM, the Kd [35] was 0.023 nM and the Kd (cloned Kv1.5 channel [36]) was over 100 nM. The Kd (cloned Kv3.1 channel [37]) was over 100 nM.

In the case of RSCIDTIPKSRCTKFQCDHSMKYRLSFCRKTCGTC (lactam 14-18; ends not checked) [ShK analog 106, Lactam Bridge (K14 -D18)], the “IC50 ratio (analog IC50/ShK IC50)” value [38] is reported as 1.63 ratio.

RSCIDTIPKSRCTAFQCKHSMKYRLSFCRKTCGTC [ShK toxin (synthetic, wild type)] was tested, and the IC50 [39] was 0.032 nM and the IC50 [40] was 0.04 nM.

With Ac-RSCIDTIPKSRCTAFQCKHSMKYRLSFCRKTCGTC (ends and bridges not checked) [N-alpha-acetyl ShK toxin] the “IC50 ratio (analog IC50/ShK IC50)” value [41] was 1 ratio and the “IC50 ratio (analog IC50/ShK IC50)” value [42] was 1 ratio.
